Data reported in the supplement of paper PMC11780869.

Tested on: Bacillus subtilis
Assay: cleaved RNA product abundance (RNA/gDNA barcode ratio) relative to median wild-type variant (ratio to wild type); higher = more accumulation of the downstream cleavage product
Details: experiment (reporter, strain, medium): exp 8a: truncated aprE reporter, strain BJT201 with 2% xylose (RNase J1 expressed); cleavage site: glnRA (positions -5 to +31 mutated)
Summary of the method: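 Truncated aprE or tetM reporter mRNAs with barcoded RNase Y cleavage-site windows, mutagenized from oligos at a 9% error rate, sat in the B. subtilis chromosome. Cells grew in LB at 37°C from OD600 0.0003 to 0.3. Gel-selected cleaved RNA was reverse transcribed and its barcodes sequenced with those from genomic DNA, collapsing by UMI. Cleaved product abundance equals the RNA:gDNA barcode ratio per construct over the median construct with the unmutated site.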

Sequence | cleaved RNA product abundance
CGACATGTCCCGCTTCTTTCATTAATCCGTTAGTAACTGTTTTGCTATATACACTTACCTTTTAAGAGGAGGAAT | 0.527
CGACATGTCCCGCTTCTTTCATTAATCCGTTAGTAACTGTTTTGCTATATACATATACCTTTTAAGAGGAGGAAT | 0.305
CGACATGTCCCGCTTCTTTCATTAATCCGTTAGTAACTGTTTTGCTATATACATTTACATTTTAAGAGGAGGAAT | 0.433
CGACATGTCCCGCTTCTTTCATTAATCCGTTAGTAACTGTTTTGCTATATACATTTACCATTTAAGAGGAGGAAT | 0.33
CGACATGTCCCGCTTCTTTCATTAATCCGTTAGTAACTGTTTTGCTATATACATTTACCTTTTAAGAGGAGGAAT | 0.379
CGACATGTCCCGCTTCTTTCATTAATCCGTTAGTAACTGTTTTGCTATATACATTTACGTTTTAAGAGGAGGAAT | 0.581
CGACATGTCCCGCTTCTTTCATTAATCCGTTAGTAACTGTTTTGCTATATACATTTACTTTTTAAGAGGAGGAAT | 0.36
CGACATGTCCCGCTTCTTTCATTAATCCGTTAGTAACTGTTTTTCTATATACATTTACCTTTTAAGAGGAGGAAT | 0.688
CGACATGTCCCGCTTCTTTCATTAATCCGTTAGTAACTTTTTTGCTATATACATTTACCTTTTAAGAGGAGGAAT | 0.636
CGACATGTCCCGCTTCTTTCATTAATCCGTTAGTAAGTGTTTTGCTATATACATTTACCTTTTAAGAGGAGGAAT | 0.265
CGACATGTCCCGCTTCTTTCATTAATCCGTTAGTAATTGTTTTGCTATATACATTTACCTTTTAAGAGGAGGAAT | 0.362
CGACATGTCCCGCTTCTTTCATTAATCCGTTAGTATCTGTTTTACTATATACATTTACCTTTTAAGAGGAGGAAT | 0.917
CGACATGTCCCGCTTCTTTCATTAATCCGTTAGTATCTGTTTTGCTATATACATTTACCTTTTAAGAGGAGGAAT | 0.422
CGACATGTCCCGCTTCTTTCATTAATCCGTTAGTTACTGTTTTGCTATATACATTTACCTTTTAAGAGGAGGAAT | 0.365
CGACATGTCCCGCTTCTTTCATTAATCCGTTATAAACTGTTTTGCTATATACATTTACCTTTTAAGAGGAGGAAT | 0.276
CGACATGTCCCGCTTCTTTCATTAATCCGTTATCAAATGTTATGTTATATACATTTACCTTTTAAGAGGAGGAAT | 0.413
CGACATGTCCCGCTTCTTTCATTAATCCGTTATCAAATGTTTTGCTATATACATTTACCTTTTAAGAGGAGGAAT | 0.283

Sequence | cleaved RNA product abundance
CGACATGTCCCGCTTCTTTCATTAATCCGTTATCAACAGTTTTGCTATATACATTTACCTTTTAAGAGGAGGAAT | 0.296
CGACATGTCCCGCTTCTTTCATTAATCCGTTATCAACTATTTTGCTATATACATTTACCTTTTAAGAGGAGGAAT | 0.276
CGACATGTCCCGCTTCTTTCATTAATCCGTTATCAACTCTTTTGCTATATACATTTACCTTTTAAGAGGAGGAAT | 0.252
CGACATGTCCCGCTTCTTTCATTAATCCGTTATCAACTGATTTGCTATATACATTTACCTTTTAAGAGGAGGAAT | 0.286
CGACATGTCCCGCTTCTTTCATTAATCCGTTATCAACTGCTTTGCTATATACATTTACCTTTTAAGAGGAGGAAT | 0.114
CGACATGTCCCGCTTCTTTCATTAATCCGTTATCAACTGGTTTGCTATATACATTTACCTTTTAAGAGGAGGAAT | 0.204
CGACATGTCCCGCTTCTTTCATTAATCCGTTATCAACTGTATTGCTATATACATTTACCTTTTAAGAGGAGGAAT | 0.306
CGACATGTCCCGCTTCTTTCATTAATCCGTTATCAACTGTGTTGCTATATACATTTACCTTTTAAGAGGAGGAAT | 0.27
CGACATGTCCCGCTTCTTTCATTAATCCGTTATCAACTGTTATGCTATATACATTTACCTTTTAAGAGGAGGAAT | 0.24
CGACATGTCCCGCTTCTTTCATTAATCCGTTATCAACTGTTCTGCTATATACATTTACCTTTTAAGAGGAGGAAT | 0.213
CGACATGTCCCGCTTCTTTCATTAATCCGTTATCAACTGTTTAGCTATATACATTTACCTTTTAAGAGGAGGAAT | 0.243
CGACATGTCCCGCTTCTTTCATTAATCCGTTATCAACTGTTTCGCTATATACATTTACCTTTTAAGAGGAGGAAT | 0.192
CGACATGTCCCGCTTCTTTCATTAATCCGTTATCAACTGTTTGGCTATATACATTTACCTTTTAAGAGGAGGAAT | 0.231
CGACATGTCCCGCTTCTTTCATTAATCCGTTATCAACTGTTTTAATATATACATTTACCTTTTAAGAGGAGGAAT | 0.415
CGACATGTCCCGCTTCTTTCATTAATCCGTTATCAACTGTTTTACTATATACATTTACCTTTTAAGAGGAGGAAT | 0.335
CGACATGTCCCGCTTCTTTCATTAATCCGTTATCAACTGTTTTCCTATATACATTTACCTTTTAAGAGGAGGAAT | 0.292
